Target: T1, Edc3 (UniProt P39998 1-551)
T1 sequence: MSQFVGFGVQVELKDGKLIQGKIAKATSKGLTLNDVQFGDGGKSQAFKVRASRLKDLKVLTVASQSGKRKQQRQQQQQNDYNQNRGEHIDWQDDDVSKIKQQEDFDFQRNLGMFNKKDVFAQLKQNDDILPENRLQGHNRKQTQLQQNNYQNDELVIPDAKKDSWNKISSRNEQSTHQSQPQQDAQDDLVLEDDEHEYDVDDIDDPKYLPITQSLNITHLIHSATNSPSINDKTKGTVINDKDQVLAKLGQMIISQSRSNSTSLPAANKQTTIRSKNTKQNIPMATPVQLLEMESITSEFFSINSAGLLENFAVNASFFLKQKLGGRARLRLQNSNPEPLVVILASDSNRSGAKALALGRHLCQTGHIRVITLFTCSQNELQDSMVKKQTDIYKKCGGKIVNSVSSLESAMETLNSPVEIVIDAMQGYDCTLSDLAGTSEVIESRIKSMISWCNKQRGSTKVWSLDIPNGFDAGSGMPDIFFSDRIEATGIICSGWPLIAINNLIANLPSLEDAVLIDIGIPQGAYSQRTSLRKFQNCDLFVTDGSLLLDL
Experiment: EMSA

B1: RPS28B 3'UTR stem-loop 60mer (WT) (structured_RNA)
RNA: AUUUUUCAAAAAAUGAAUUAAAUGAUUGAAGUCACUUAAUUUUUGUGGUUUUUUGGAGGU
- Kd: 2.55 µM

Source: paper PMC7293044
